Results taken from patent US20260167699A1 (Chugai, published 2026).

T1: FcγRIIa(R) extracellular domain, His-tagged (human, UniProt P12318 34-217)
T1 construct: extracellular domain; also called 2aR
T1 sequence: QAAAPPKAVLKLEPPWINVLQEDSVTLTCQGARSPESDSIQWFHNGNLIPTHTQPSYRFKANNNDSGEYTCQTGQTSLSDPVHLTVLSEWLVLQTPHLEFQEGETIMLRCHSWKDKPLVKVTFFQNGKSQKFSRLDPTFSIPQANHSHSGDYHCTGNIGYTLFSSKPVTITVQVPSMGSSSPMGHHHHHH

T2: FcγRIIa(H) extracellular domain, His-tagged (human, UniProt P12318 34-217)
T2 construct: extracellular domain; also called 2aH
T2 sequence: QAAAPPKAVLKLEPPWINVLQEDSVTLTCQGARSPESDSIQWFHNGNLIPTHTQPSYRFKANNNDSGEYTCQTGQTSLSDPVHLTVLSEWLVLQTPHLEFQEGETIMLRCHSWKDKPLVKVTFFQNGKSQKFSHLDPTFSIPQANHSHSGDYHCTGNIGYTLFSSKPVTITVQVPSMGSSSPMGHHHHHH

T3: FcγRIIb extracellular domain, His-tagged (human, UniProt P31994 43-217)
T3 construct: extracellular domain; also called 2b
T3 sequence: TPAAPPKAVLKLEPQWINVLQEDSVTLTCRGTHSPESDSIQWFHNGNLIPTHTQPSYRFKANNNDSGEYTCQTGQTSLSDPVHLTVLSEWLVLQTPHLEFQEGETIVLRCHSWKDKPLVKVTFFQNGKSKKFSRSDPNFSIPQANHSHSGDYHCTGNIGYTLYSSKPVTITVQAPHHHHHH

T4: FcγRIIa(R) (human, UniProt P12318 34-217)
T4 construct: extracellular domain; also called 2aR
T4 sequence: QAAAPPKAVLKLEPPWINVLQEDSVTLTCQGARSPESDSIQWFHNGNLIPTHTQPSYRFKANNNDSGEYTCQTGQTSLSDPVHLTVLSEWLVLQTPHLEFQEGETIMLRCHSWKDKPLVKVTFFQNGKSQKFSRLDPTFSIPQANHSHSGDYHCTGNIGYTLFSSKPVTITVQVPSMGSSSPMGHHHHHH

T5: FcγRIIa(H) (human, UniProt P12318 34-217)
T5 construct: extracellular domain; also called 2aH
T5 sequence: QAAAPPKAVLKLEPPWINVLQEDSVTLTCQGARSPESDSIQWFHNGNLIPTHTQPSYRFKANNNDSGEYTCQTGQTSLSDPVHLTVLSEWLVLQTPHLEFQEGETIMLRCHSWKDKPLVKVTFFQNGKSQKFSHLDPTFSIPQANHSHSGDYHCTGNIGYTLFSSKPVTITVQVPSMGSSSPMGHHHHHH

T6: FcγRIIb (human, UniProt P31994 43-217)
T6 construct: extracellular domain; also called 2b
T6 sequence: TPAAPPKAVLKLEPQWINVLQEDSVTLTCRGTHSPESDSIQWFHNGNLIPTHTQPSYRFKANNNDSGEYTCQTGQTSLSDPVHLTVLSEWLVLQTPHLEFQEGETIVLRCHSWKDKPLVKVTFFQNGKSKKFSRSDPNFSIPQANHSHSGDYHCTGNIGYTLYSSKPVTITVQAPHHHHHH


Assays:
[1] = target: T7, FcγRIa extracellular domain, His-tagged (human, UniProt P12314 16-292); assay: SPR, vs GpH7-A5/GpH7-B3/GpL16-k0 =100
T7 construct: extracellular domain; also called 1a
T7 sequence (P12314 other isoform, or with tags, fused parts or gaps): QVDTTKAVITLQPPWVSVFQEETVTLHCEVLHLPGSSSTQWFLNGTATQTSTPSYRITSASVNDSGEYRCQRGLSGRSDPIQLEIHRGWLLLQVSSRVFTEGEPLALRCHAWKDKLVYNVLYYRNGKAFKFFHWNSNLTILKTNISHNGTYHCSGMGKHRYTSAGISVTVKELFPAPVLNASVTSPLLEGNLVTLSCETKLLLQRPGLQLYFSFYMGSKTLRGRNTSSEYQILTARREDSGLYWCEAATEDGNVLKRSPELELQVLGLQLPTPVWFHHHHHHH

[2] = target: T1, FcγRIIa(R) extracellular domain, …; assay: SPR, vs GpH7-A5/GpH7-B3/GpL16-k0 =100
[3] = target: T2, FcγRIIa(H) extracellular domain, …; assay: SPR, vs GpH7-A5/GpH7-B3/GpL16-k0 =100
[4] = target: T3, FcγRIIb extracellular domain, His-tagged; assay: SPR, vs GpH7-A5/GpH7-B3/GpL16-k0 =100
[5] = target: T8, FcγRIIIa extracellular domain, His-tagged (human, UniProt P08637 17-208); assay: SPR, vs GpH7-A5/GpH7-B3/GpL16-k0 =100
T8 construct: extracellular domain; also called 3a
T8 sequence (P08637 other isoform, or with tags, fused parts or gaps): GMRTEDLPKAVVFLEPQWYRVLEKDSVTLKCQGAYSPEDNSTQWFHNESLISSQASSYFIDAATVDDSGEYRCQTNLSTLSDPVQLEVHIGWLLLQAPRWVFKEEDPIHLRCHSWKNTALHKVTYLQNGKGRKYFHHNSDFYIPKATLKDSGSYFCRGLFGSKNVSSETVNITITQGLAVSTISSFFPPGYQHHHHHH

FcγRIa = target: T9, FcγRIa (human, UniProt P12314 16-292); assay: SPR, relative to GpH7-A5/GpH7-B3/GpL16-k0 =100
T9 construct: extracellular domain; also called 1a
T9 sequence (P12314 other isoform, or with tags, fused parts or gaps): as the sequence (P12314 other isoform, or with tags, fused parts or gaps) above

FcγRIIa(R) = target: T4, FcγRIIa(R); assay: SPR, relative to GpH7-A5/GpH7-B3/GpL16-k0 =100
FcγRIIa(H) = target: T5, FcγRIIa(H); assay: SPR, relative to GpH7-A5/GpH7-B3/GpL16-k0 =100
FcγRIIb = target: T6, FcγRIIb; assay: SPR, relative to GpH7-A5/GpH7-B3/GpL16-k0 =100

Binder | He/Con 1a [1] | He/Con 2aR [2] | He/Con 2aH [3] | He/Con 2b [4] | He/Con 3a [5] | He/Con 1a (FcγRIa) [%] | He/Con 2aR (FcγRIIa(R)) [%] | He/Con 2aH (FcγRIIa(H)) [%] | He/Con 2b (FcγRIIb) [%]
GpH7-A5/GpH7-B3 variant S324_14T/GpL16-k0 (antibody, human IgG1, kappa, He Ab: heterodimerized IgG1, one H chain mutated) heavy 1: not shown heavy 2: not shown light: DIVMTQSPLSLPVTPGEPASISCQASESLVHSNRNTYLHWYLQKPGQSPQLLIYKVSNRFSGVPDRFSGSGSGTDFTLKISRVEAEDVGVYYCSQNTHVPPTFGQGTKVEIERTVAAPSVFIFPPSDEQLKSGTASVVCLLNNFYPREAKVQWKVDNALQSGNSQESVTEQDSKDSTYSLSSTLTLSKADYEKHKVYACEVTHQGLSSPVTKSFNRGEC |  |  |  |  |  | 114 | 93.9 | 107 | 115
GpH7-A5/GpH7-B3 variant A327_05P/GpL16-k0 (antibody, human IgG1, kappa, He Ab: heterodimerized IgG1, one H chain mutated) heavy 1: not shown heavy 2: not shown light: DIVMTQSPLSLPVTPGEPASISCQASESLVHSNRNTYLHWYLQKPGQSPQLLIYKVSNRFSGVPDRFSGSGSGTDFTLKISRVEAEDVGVYYCSQNTHVPPTFGQGTKVEIERTVAAPSVFIFPPSDEQLKSGTASVVCLLNNFYPREAKVQWKVDNALQSGNSQESVTEQDSKDSTYSLSSTLTLSKADYEKHKVYACEVTHQGLSSPVTKSFNRGEC |  |  |  |  |  | 102 | 80.6 | 67.9 | 86.3
GpH7-A5/GpH7-B3 variant A327_09D/GpL16-k0 (antibody, human IgG1, kappa, He Ab: heterodimerized IgG1, one H chain mutated) heavy 1: not shown heavy 2: not shown light: DIVMTQSPLSLPVTPGEPASISCQASESLVHSNRNTYLHWYLQKPGQSPQLLIYKVSNRFSGVPDRFSGSGSGTDFTLKISRVEAEDVGVYYCSQNTHVPPTFGQGTKVEIERTVAAPSVFIFPPSDEQLKSGTASVVCLLNNFYPREAKVQWKVDNALQSGNSQESVTEQDSKDSTYSLSSTLTLSKADYEKHKVYACEVTHQGLSSPVTKSFNRGEC |  |  |  |  |  | 105 | 159 | 124 | 214

Other lines, results leading:

He/Con 1a [1] | He/Con 2aR [2] | He/Con 2aH [3] | He/Con 2b [4] | He/Con 3a [5] | He/Con 1a (FcγRIa) [%] | He/Con 2aR (FcγRIIa(R)) [%] | He/Con 2aH (FcγRIIa(H)) [%] | He/Con 2b (FcγRIIb) [%] | Binder
99.2 % of control | 145 % of control | 61.9 % of control | 228 % of control | 64.3 % of control |  |  |  |  | GpH7-A5/GpH7-B3 variant S267_19Q/GpL16-k0 (antibody, human IgG1, kappa) heavy 1: not shown heavy 2: not shown light: DIVMTQSPLSLPVTPGEPASISCQASESLVHSNRNTYLHWYLQKPGQSPQLLIYKVSNRFSGVPDRFSGSGSGTDFTLKISRVEAEDVGVYYCSQNTHVPPTFGQGTKVEIERTVAAPSVFIFPPSDEQLKSGTASVVCLLNNFYPREAKVQWKVDNALQSGNSQESVTEQDSKDSTYSLSSTLTLSKADYEKHKVYACEVTHQGLSSPVTKSFNRGEC
96.5 % of control | 161 % of control | 84.8 % of control | 264 % of control | 84.9 % of control |  |  |  |  | GpH7-A5/GpH7-B3 variant V266_06M/GpL16-k0 (antibody, human IgG1, kappa) heavy 1: not shown heavy 2: not shown light: DIVMTQSPLSLPVTPGEPASISCQASESLVHSNRNTYLHWYLQKPGQSPQLLIYKVSNRFSGVPDRFSGSGSGTDFTLKISRVEAEDVGVYYCSQNTHVPPTFGQGTKVEIERTVAAPSVFIFPPSDEQLKSGTASVVCLLNNFYPREAKVQWKVDNALQSGNSQESVTEQDSKDSTYSLSSTLTLSKADYEKHKVYACEVTHQGLSSPVTKSFNRGEC
 |  |  |  |  | 100 | 95.9 | 76.6 | 98.2 | GpH7-A5/GpH7-B3 variant A327_20W/GpL16-k0 (antibody, human IgG1, kappa, He Ab: heterodimerized IgG1, one H chain mutated) heavy 1: not shown heavy 2: not shown light: DIVMTQSPLSLPVTPGEPASISCQASESLVHSNRNTYLHWYLQKPGQSPQLLIYKVSNRFSGVPDRFSGSGSGTDFTLKISRVEAEDVGVYYCSQNTHVPPTFGQGTKVEIERTVAAPSVFIFPPSDEQLKSGTASVVCLLNNFYPREAKVQWKVDNALQSGNSQESVTEQDSKDSTYSLSSTLTLSKADYEKHKVYACEVTHQGLSSPVTKSFNRGEC
 |  |  |  |  | 105 | 98.6 | 84.4 | 99 | GpH7-A5/GpH7-B3 variant A327_13S/GpL16-k0 (antibody, human IgG1, kappa, He Ab: heterodimerized IgG1, one H chain mutated) heavy 1: not shown heavy 2: not shown light: DIVMTQSPLSLPVTPGEPASISCQASESLVHSNRNTYLHWYLQKPGQSPQLLIYKVSNRFSGVPDRFSGSGSGTDFTLKISRVEAEDVGVYYCSQNTHVPPTFGQGTKVEIERTVAAPSVFIFPPSDEQLKSGTASVVCLLNNFYPREAKVQWKVDNALQSGNSQESVTEQDSKDSTYSLSSTLTLSKADYEKHKVYACEVTHQGLSSPVTKSFNRGEC
